Results as given in patent US20140220033A1, “Administration of an Anti-Activin-A Compound to a Subject” (Santa Maria Biotherapeutics, Inc., priority 2013, published 2014).

B1: recombinant activin-A: Recombinant activin-A produced using mammalian expression system (Amgen Inc); stimulus in cell cultures (protein)
chain: GLECDGKVNICCKKQFFVSFKDIGWNDWIIAPSGYHANYCEGECPSHIAGTSGSSLSFHSTVINHYRMRGHSPFANLKSCCVPTKLRPMSMLYYDDGQNIIKKDIQNMIVEECGCS

Key:
[1] = test system: TOV-21G ovarian cancer xenografts; experiment: TOV-21G ovarian cancer xenograft growth in nude mice; format: in vivo, mouse
Experimental: 5×10^6 TOV-21G ovarian cancer cells were implanted subcutaneously into individual female athymic nu/nu mice (Harlan). Treatment was initiated at day 12 after tumor implantation, when the average tumor volume reached approximately 150 mm^3. The mice received PBS, sActRIIB (30 mg/kg, SC, 1×/week) or activin-A antibody (30 mg/kg, SC, 2×/week). In a separate chemotherapy combination experiment, the mice were treated with PBS, sActRIIB (10 mg/kg, SC, 1×/week), 5-FU (50 mg/kg, IP, 3 cycles, 4 daily injections per cycle) or sActRIIB and 5-FU combination at the same doses above.
For all xenograft experiments, the tumor sizes were measured longitudinally by using an electronic caliper Immediately prior to the 1st dose, the tumor-bearing mice were randomized to ensure even distribution in tumor sizes across different groups. Tumor volumes (mm^3) were calculated as tumor length (mm)×tumor width (mm)×tumor height (mm) Tumor weights were determined by necropsy.
In another experiment, athymic nude mice received TOV-21G xenografts in the abdominal flank. After 14 days, subcutaneous hu-sActRIIB-Fc was administered weekly alone or in combination with 5-FU.

[2] = test system: VEGF transcripts; experiment: VEGF mRNA in cell cultures (real-time RT-PCR); format: cell-based, human, bovine; conditions: TOV-21G, BAEC, MRC-5, CCD-Lu, U937 cultures treated with recombinant activin-A, without or with sActRIIB; FIG. 16A
[3] = test system: Ang-1 mRNA; experiment: Ang-1 mRNA in cell cultures (real-time RT-PCR); format: cell-based, human, bovine; conditions: BAEC, MRC-5 and CCD-Lu cultures treated with recombinant activin-A, without or with sActRIIB; FIG. 16B
[4] = test system: VEGF; experiment: VEGF release into culture medium (ELISA); format: cell-based, human; conditions: TOV21G, MRC-5, CCD-Lu and TPH-1 cells treated with activin-A, without or with sActRIIB; FIG. 17A
Experimental: (§1) The serum VEGF levels in inh-KO mice were measured by using immunoassay kit (R&D Systems), and the levels of human VEGF and Ang-1 in cell line culture medium were quantified using ELISA kits purchased from Invitrogen (VEGF) and R&D Systems (Ang-1), by following the manufacturers' recommended protocols.

[5] = test system: Ang-1; experiment: Ang-1 release into culture medium (ELISA); format: cell-based, human; conditions: MRC-5 and CCD-Lu cells treated with activin-A, without or with sActRIIB; FIG. 17B
Experimental: as §1

[6] = test system: activin-A (βA) mRNA; experiment: Endogenous activin-A (βA) mRNA in cell cultures (real-time RT-PCR); format: cell-based, human, bovine; conditions: TOV21G, BAEC, MRC-5, CCD-Lu, U937 and THP-1 cultures treated with recombinant activin-A, without or with sActRIIB; FIG. 18

Molecule	tumor growth reduction ([1]; 52 days after tumor cell injection, versus vehicle-treated tumor-bearing group, p<0.0001, weekly SC hu-sActRIIB-Fc from day 14, alone or with 5-FU) [%]	rate of tumor growth of TOV-21G xenografts ([1]; chemotherapy combination experiment, sActRIIB 10 mg/kg SC 1x/week, 5-FU 50 mg/kg IP 3 cycles, alone or together, FIG. 13)	levels of VEGF transcripts [2]	levels of Ang-1 mRNA [3]	release of VEGF into the culture medium [4]	release of Ang-1 into the culture medium [5]	endogenous βA mRNA expression [6]
O=c1[nH]cc(F)c(=O)[nH]1 [5-FU, 5-Fluorouracil, reference compound]	47	decreased the rate of tumor growth significantly	–	–	–	–	–
B1	–	–	marked increases	marked increases	increased the release	increased the release	markedly upregulated
